The record followed here is patent publication US20120258107A1.

The target in assay [1] is purified recombinant CD163 immobilized on a Biacore chip (human) (UniProt Q86VB7). Put plainly: SPR, immobilized CD163, 10 mM EDTA. (Surface plasmon resonance follows binding to a sensor surface in real time, without labels.)
The target in assay [2] is human CD163 on cells (human) (UniProt Q86VB7). Description: quantitative flow cytometry, whole blood, EDTA. (In general: Flow cytometry measures light scatter and fluorescence of single cells or particles in a stream.)
human CD163 on cells (human), sequence (Q86VB7 42-1156): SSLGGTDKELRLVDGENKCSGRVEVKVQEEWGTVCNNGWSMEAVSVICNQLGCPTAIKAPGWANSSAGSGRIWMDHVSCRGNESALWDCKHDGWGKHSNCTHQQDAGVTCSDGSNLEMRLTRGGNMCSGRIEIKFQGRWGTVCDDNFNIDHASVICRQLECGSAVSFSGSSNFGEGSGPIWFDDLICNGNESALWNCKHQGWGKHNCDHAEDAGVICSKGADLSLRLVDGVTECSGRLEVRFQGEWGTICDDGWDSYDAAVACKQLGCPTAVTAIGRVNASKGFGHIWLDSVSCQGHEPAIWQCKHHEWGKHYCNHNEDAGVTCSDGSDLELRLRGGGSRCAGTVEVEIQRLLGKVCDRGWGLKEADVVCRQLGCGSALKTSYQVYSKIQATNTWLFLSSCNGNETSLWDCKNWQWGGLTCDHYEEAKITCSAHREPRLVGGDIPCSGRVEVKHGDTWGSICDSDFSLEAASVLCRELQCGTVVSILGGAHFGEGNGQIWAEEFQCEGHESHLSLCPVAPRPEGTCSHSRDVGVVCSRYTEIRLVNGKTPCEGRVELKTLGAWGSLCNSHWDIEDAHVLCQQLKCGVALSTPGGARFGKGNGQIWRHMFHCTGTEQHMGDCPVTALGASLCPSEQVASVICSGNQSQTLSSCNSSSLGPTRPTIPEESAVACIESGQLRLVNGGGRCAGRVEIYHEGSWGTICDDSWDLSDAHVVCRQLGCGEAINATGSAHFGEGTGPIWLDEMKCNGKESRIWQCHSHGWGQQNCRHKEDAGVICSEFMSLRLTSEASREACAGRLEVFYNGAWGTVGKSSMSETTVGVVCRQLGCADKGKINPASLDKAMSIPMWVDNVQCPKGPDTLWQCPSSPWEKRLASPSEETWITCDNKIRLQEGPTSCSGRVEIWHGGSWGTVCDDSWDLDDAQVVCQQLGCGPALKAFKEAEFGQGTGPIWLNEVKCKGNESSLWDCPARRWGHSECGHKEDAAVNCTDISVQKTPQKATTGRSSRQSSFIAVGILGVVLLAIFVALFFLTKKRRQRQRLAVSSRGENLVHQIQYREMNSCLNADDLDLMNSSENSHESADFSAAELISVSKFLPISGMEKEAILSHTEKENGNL
Assay [3] shares this target. Description: quantitative flow cytometry, whole blood, citrate.
For assay [4] the target is unchanged. Put plainly: quantitative flow cytometry, whole blood, heparin.
The target is the same in assay [5]. Description: flow cytometry, whole blood, EDTA as anticoagulant.
The target is the same in assay [6]. Put plainly: flow cytometry, whole blood, citrate as anticoagulant.
The target is the same in assay [7]. Put plainly: flow cytometry, whole blood, heparin as anticoagulant.
For assay [8] the target is unchanged. Put plainly: flow cytometry, R-PE mAb, freshly drawn EDTA whole blood.
For assay [9] the target is unchanged. Description: flow cytometry, PE mAb, peripheral blood dendritic cells.
Assay [10] has the same target. Description: flow cytometry, PBMC after density gradient centrifugation.
Assay [11] has the same target. Put plainly: flow cytometry, PE mAb, CD14-ILT3+ dendritic cells in whole blood.
For assay [12] the target is unchanged. Put plainly: quantitative flow cytometry, Quantibrite PE beads, EDTA whole blood.
For assay [13] the target is unchanged. Description: flow cytometry, CD163low subset of peripheral blood dendritic cells.
Assay [14] shares this target. Description: flow cytometry, CD163high subset of peripheral blood dendritic cells.
Assay [15] shares this target. Put plainly: flow cytometry, CD14+ILT3+HLA-DR+ monocytes stained positive for CD163.
For assay [16] the target is unchanged. Description: quantitative flow cytometry, PBMC after density gradient centrifugation.
Assay [17] shares this target. Put plainly: 125I-labelled mAb on stable CD163 transfected Flp-In CHO cells (1.23% on non-transfected cells).
The target is the same in assay [18]. Put plainly: 125I-labelled mAb on stable CD163 transfected Flp-In CHO cells (0.97% on non-transfected cells).
Assay [19] concerns the target purified recombinant CD163 immobilized on a Biacore chip (human) (UniProt Q86VB7). Description: SPR, immobilized CD163, 2 mM free Ca2+.
Assay [20] addresses human CD163 on cells (human) (UniProt Q86VB7). Put plainly: 125I-labelled mAb on stable CD163 transfected Flp-In CHO cells (1.47% on non-transfected cells).
The target of assay [21] is rat CD163 on cells (rat). Put plainly: flow cytometry, rat peritoneal macrophages, ED2-FITC.
The target in assay [22] is rat CD163 on cells (rat). Description: flow cytometry of rat peritoneal macrophages, anti-rat CD163-FITC (ED2) against anti-rat CD172a-PE (ED9).
The target in assay [23] is rat CD163 on cells (rat). Put plainly: cell-based or functional assay.
The target of assay [24] is rat CD163 on cells (rat). Put plainly: flow cytometry of rat peritoneal macrophages, negative control staining with IgG-FITC.
For assay [25], the target named is human CD163 on cells (human) (UniProt Q86VB7). Put plainly: quantitative flow cytometry, background staining, EDTA whole blood.
Assay [26] has the same target. Description: flow cytometry on peripheral blood dendritic cells, negative staining control.

purified recombinant CD163 immobilized on a Biacore chip (human), sequence (Q86VB7 42-1050 limits assumed): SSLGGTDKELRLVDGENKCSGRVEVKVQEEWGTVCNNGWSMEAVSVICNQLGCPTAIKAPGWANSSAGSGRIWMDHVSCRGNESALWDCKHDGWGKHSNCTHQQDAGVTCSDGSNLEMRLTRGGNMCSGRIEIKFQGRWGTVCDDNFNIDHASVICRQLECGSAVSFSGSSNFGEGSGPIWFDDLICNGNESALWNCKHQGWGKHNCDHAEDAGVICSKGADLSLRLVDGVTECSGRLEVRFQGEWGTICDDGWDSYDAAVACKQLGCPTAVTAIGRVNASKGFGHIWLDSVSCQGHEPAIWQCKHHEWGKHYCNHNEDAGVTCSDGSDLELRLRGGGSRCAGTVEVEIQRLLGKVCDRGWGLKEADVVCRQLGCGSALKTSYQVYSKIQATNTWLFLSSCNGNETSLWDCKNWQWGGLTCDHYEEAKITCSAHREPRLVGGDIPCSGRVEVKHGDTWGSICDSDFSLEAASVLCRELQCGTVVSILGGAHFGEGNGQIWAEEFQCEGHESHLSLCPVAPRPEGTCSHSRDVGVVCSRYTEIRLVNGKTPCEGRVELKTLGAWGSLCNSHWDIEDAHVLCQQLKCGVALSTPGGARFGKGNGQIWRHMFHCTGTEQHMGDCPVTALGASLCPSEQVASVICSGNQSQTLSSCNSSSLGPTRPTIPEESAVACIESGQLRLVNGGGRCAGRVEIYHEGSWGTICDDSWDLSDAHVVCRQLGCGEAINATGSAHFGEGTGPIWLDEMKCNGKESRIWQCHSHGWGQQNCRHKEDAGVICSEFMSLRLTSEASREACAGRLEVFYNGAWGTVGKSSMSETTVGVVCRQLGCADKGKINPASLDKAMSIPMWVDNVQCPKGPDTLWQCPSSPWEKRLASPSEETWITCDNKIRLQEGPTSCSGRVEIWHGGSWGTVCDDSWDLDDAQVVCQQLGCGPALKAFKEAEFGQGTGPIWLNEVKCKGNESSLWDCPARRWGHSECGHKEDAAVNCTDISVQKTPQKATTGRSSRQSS

As a reminder, the Kd is the constant that tells how readily two partners part at equilibrium. For the substance Anti-CD163 (GHI/61) (antibody), in assay [1], the Kd is 29 nM. Besides, the density of CD163 receptors per monocyte (PE antibodies bound per cell) in assay [2] came to 1030 per monocyte; in assay [3], 1150 per monocyte; in [4], 58.3 per monocyte; in assay [12], 1030 per monocyte; in [16], 108 per monocyte. Further, the fraction of CD14+ monocytes stained positive for CD163 in [5] was 63%; in [6], 64.4%; in assay [7], 0.82%; in assay [8] it was 63%; in assay [10], 1.26%. The MFI was determined as 22.3 in [9], 4.2 MFI in [13] and 34.6 MFI in assay [14]. Further, the fraction of peripheral blood dendritic cells recognized in assay [11] was 10.5%. For the same substance, the percent of cells stained positive in assay [15] was 88%.
As for “Anti-CD163 (GHI/61) (antibody, non-transfected cells)”, the percentage of cell-associated radioactivity in assay [17] turned out to be 1.23%.
Take Anti-CD163 (R-20) (antibody): the density of CD163 receptors per monocyte (PE antibodies bound per cell) in assay [2] was 1760 per monocyte; in [3], 1990 per monocyte; in assay [4], 3020 per monocyte; in assay [12], 1650 per monocyte; in assay [16], 837 per monocyte. Also, the fraction of CD14+ monocytes stained positive for CD163 in assay [5] amounted to 75.9%; in [6] it was 74.7%; in [7], 63%; in assay [8] it was 75.9%; in [10] it was 54.4%. Besides, in assay [18], the percentage of cell-associated radioactivity worked out at 19%.
With Anti-CD163 (RM3/1) (antibody), the Kd in assay [19] is 0.6 nM. The density of CD163 receptors per monocyte (PE antibodies bound per cell) in [2] was 86 per monocyte; in [3] it was 207 per monocyte; in [4], 210 per monocyte; in assay [12], 101 per monocyte; in assay [16] it was 132 per monocyte. In addition, the fraction of CD14+ monocytes stained positive for CD163 in assay [5] is 0.33%; in assay [6] it was 12.5%; in [7], 3.33%; in assay [8], 0.33%; in assay [10] it was 2.5%. Besides, the percentage of cell-associated radioactivity in assay [20] was 7.77%.
In turn, Anti-rat CD163 ED2 (antibody) came in with a fraction of peritoneal macrophages CD163 positive with rat CD163 on cells (rat) [21] of 42%. In the assay with rat CD163 on cells (rat) [22], this substance came in with a % of cells in the lower right quadrant (CD172a PE negative, CD163 FITC positive) of 0.01% and a % of cells in the upper right quadrant (CD172a PE positive, CD163 FITC positive) of 42.9%.
Turning to ED2-MVCP-dexamethasone (antibody), the suppressive effect on LPS mediated TNFα in vitro, rat spleen cells, against free dexamethasone with rat CD163 on cells (rat) [23] stood at 3 fold.
In the assay with rat CD163 on cells (rat) [23], ED2-NHS-dexamethasone (antibody) had a level of TNFα suppression after 15 minutes of incubation, LPS stimulated rat spleen cells, against free dexamethasone of 2 fold and a suppressive effect on LPS mediated TNFα in vitro, rat spleen cells, against free dexamethasone of 2 fold.
With IgG-FITC (antibody), in the assay with rat CD163 on cells (rat) [24], the % of cells in the lower right quadrant (IgG FITC positive) was found to be 0.41% and the % of cells in the upper right quadrant (IgG FITC positive, FL2 positive) is 0.06%.
Consider “R-PE-conjugated Mouse IgG1, k isotype control (MCG1) (antibody)”, for which the density of CD163 receptors per monocyte (PE antibodies bound per cell) in assay [25] is 94 per monocyte. Also, in assay [26], the MFI worked out at 1.23 MFI.
